Results taken from patent publication US20200231656A1 (UNIVERSIT T HEIDELBERG, published 2020).
Where “and” joins values, the source holds several entries; their conditions need not be identical. Equal values may be shown once.

Tests used:
[1] = target: T1, norovirus GII.10 VLPs (full-length capsid protein VP1, virus-like particles) (norovirus GII.10 (Vietnam026))
T1 chain: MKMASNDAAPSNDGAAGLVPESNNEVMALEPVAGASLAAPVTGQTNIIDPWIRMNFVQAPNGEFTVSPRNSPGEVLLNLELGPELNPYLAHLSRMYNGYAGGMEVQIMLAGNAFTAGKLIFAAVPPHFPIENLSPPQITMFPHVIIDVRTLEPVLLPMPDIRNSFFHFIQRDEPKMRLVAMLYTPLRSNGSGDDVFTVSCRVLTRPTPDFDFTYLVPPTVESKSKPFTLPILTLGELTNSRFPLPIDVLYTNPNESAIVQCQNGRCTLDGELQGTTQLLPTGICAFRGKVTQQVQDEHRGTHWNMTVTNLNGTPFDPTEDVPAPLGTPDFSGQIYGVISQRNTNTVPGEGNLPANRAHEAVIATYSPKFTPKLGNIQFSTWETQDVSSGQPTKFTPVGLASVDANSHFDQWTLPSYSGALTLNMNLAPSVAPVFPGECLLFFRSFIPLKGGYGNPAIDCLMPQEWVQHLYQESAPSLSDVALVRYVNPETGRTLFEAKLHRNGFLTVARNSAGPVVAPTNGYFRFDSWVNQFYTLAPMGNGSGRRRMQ

[2] = target: T2, norovirus GII.4 2006 VLPs (full-length capsid protein VP1, virus-like particles) (norovirus GII.4 (Saga4 2006)); test: blocking ELISA: GII.4 VLPs pretreated with Nano-26, binding to coated PGM
T2 construct: mature; also called GII.4 VLPs

B1: Nano-26 (VHH)
VHH: QVQLQESGGGLVQPGGSLRLSCTAPRIIFFMYDVGWYRQAPEKQRELVAQINSDVSTKYADSVKGRFTISRDNAKRTVYLQMNDLKPEDAAVYYCNVRRASADYWGQGTQVTVSS
notes: also called Nanobody Nano-26; N26; not shown: His-tag implied by detection with an anti-His-tag antibody (pHEN6C vector); its
In the case of B1, the IC50 [1] is reported as 6.6 µg/mL and 3.1 µg/mL and 2.6 µg/mL and 4.3 µg/mL and the IC50 [2] is reported as 2.4 µg/mL.
